In paper doi:10.1101/2022.08.19.504532 (bioRxiv, 2022):
Values joined by “and” are separate entries in the source; they are usually repeats but may differ in a detail not shown here. Equal values may be shown once.

Legend:
[1] = molecular target: FLAG-BIRC6 (full-length baculoviral IAP repeat-containing protein 6) (human) (UniProt Q9NR09); experiment: cryo-EM structure; conditions: remark: other sources report otherwise
[2] = molecular target: 3xFLAG-BIRC6 (full-length, wild type) (human) (UniProt Q9NR09); experiment: FRET or BRET
[3] = molecular target: 3xFLAG-BIRC6 (full-length, wild type) (human, UniProt Q9NR09 1-4857); experiment: FRET or BRET
[4] = molecular target: 3xFLAG-BIRC6 BIRmut (C328S/C331S) (human, UniProt Q9NR09 1-4857, C328S | C331S); experiment: FRET or BRET
[5] = molecular target: 3xFLAG-BIRC6 ΔHelix (aa1616-1666 removed) (human, UniProt Q9NR09 1-4857, ΔHelix, aa1616-1666 removed); experiment: FRET or BRET
[6] = molecular target: FLAG-BIRC6 (full-length baculoviral IAP repeat-containing protein 6) (human, UniProt Q9NR09 1-4857); experiment: cryo-EM structure
[7] = molecular target: the molecule itself; experiment: cryo-EM structure

FLAG-BIRC6 (full-length baculoviral IAP repeat-containing protein 6), Q9NR09 1-4857
stoichiometry N [1]: 2

BODIPY-labeled caspase-7 (from UniProt P55210 1-303) (enzyme)
Kd [2]: 4 nM

B1: BODIPY-labeled Smac-Cys (natural protein)
chain: AVPIAQKSEPHSLSSEALMRRAVSLVTDSTSTFLSQTTYALIEAITEYTKAVYTLTSLYRQYTSLLGKMNSEEEDEVWQVIIGARAEMTSKHQEYLKLETTWMTAVGLSEMAAEAAYQTGADQASITARNHIQLVKLQVEEVHQLSRKAETKLAEAQIEELRQKTQEEGEERAESEQEAYLREDC
modifications: BODIPY FL Maleimide on the introduced cysteine (degree of labeling 0.48)
Kd [3]: < 2 nM and 2 nM | binding result [3]: binds | Kd [4]: 26 ± 2 nM | Kd [5]: 30 ± 5 nM

B2: Smac-His9 (mature Smac without the N-terminal mitochondrial targeting sequence) (natural protein)
chain: AVPIAQKSEPHSLSSEALMRRAVSLVTDSTSTFLSQTTYALIEAITEYTKAVYTLTSLYRQYTSLLGKMNSEEEDEVWQVIIGARAEMTSKHQEYLKLETTWMTAVGLSEMAAEAAYQTGADQASITARNHIQLVKLQVEEVHQLSRKAETKLAEAQIEELRQKTQEEGEERAESEQEAYLRED
binding result [6]: binds | stoichiometry N [7]: 2
